Conditions: human, in vivo

## distearoyl-phosphatidylethanolamine-N-[methoxy(polyethene glycol)-2000] [DSPE(PEG-2000)]
  CL (mean): 0.025 L/h/m^2
  Vss (mean): 1.409 L/m^2
  dose proportionality for Cmax and AUCinf: demonstrate dose proportionality

Source: patent US20160250177A1, “MODIFIED DOCETAXEL LIPOSOME FORMULATIONS AND USES THEREOF” (MALLINCKRODT LLC, priority 2015, published 2016)
